B1: S100A8/A9: recombinant S100A8/A9, heterocomplex of two S100 calcium binding proteins (calprotectin) (protein, UniProt P27005 2-89; P31725 2-113, looked up)
Protein S100-A8: PSELEKALSNLIDVYHNYSNIQGNHHALYKNDFKKMVTTECPQFVQNINIENLFRELDINSDNAINFEEFLAMVIKVGVASHKDSHKE
Protein S100-A9: ANKAPSQMERSITTIIDTFHQYSRKEGHPDTLSKKEFRQMVEAQLATFMKKEKRNEALINDIMEDLDTNQDNQLSFEECMMLMAKLIFACHEKLHENNPRGHGHSHGKGCGK

Columns and labels:
KPr^p53A cells = test: In vitro co-culture of dormant tumor cells with PMN (count of GFP+ cells); type: cell-based, mouse
Procedure: (§1) The KPr cell line (16) was maintained in RPMI 1640 medium (Corning) and 10% FBS (Gibco). Treatment of KPr cells with 250 nM 4-hydroxytamoxifen (4-OHT, Sigma-Aldrich) induced p53 expression. p53-induced cells (KPr^p53) were stained with CellTrace dye for 20 min at 37° C. according to the manufacturer's instructions (Life Technologies) and seeded at 8500 cells/cm^2 in culture in a T175 tissue culture-treated flask (Gibco). After 7 days, cells were detached and sorted based on the CellTrace dye intensity as proliferating (KPr^p53P, with lower CellTrace) and arrested cells (KPr^p53A, with higher-intensity CellTrace; see FIG. 1A for representative image). LL2 cells were seeded at 1000 cells/cm2 and treated for 3 days with 2.5 μM cisplatin (Selleckchem). After that, cells were stained with CellTrace and sorted as described above. OVCAR3 cell senescence was induced by treating 5×10^4 cells/cm2 with 0.5 μM cisplatin for 72 hours. After that time, cells were stained with CellTrace and sorted. A549 senescence was induced by 72-hour treatment with 4 μM cisplatin and cells were sorted after staining with CellTrace. Time points for sorting were chosen as the best to observe separation between arrested and proliferating cells. Cells were sorted on Astrios (Beckman Coulter) or Melody (Becton Dickinson) fluorescence-activated cell sorters.
(§2) Arrested tumor cells were plated at 100 cells/cm^2 in a 48-well tissue culture-treated plate (Costar) for coculture experiments. After 24 hours, PMN-MDSC or PMN were added at indicated ratios. Cocultures were maintained for 48 hours in RPMI 1640+10% FBS in the presence of mouse recombinant GM-CSF (10 ng/ml; Rocky Hill) to ensure neutrophil viability. All control conditions were in the presence of media with GM-CSF. All indicated supplements (NE, S100A8/A9, BGJ398, ICI 118-551, IL-2, MPO inhibitor, LPS, lipids, PMA, and thapsigargin 1 μM) were added to culture at the same time as PMN and maintained for 48 hours. After that, media were removed and replaced by fresh media without GM-CSF. After 1 week, GFP^+ cells in wells were counted via an inverted microscope. When lipid extracts were used, lipids were added to dormant cells in culture at 1 to 0.05 or 0.01 nmol as indicated in each experiment.

PMN = PMN viability (proportion of live PMN); type: cell-based, mouse
Procedure: FIG. 2A-FIG. 2K show neutrophil-mediated reactivation of dormant cells is regulated by stress-induced S100A8/A9. (FIG. 2A) Fold increase in the number of KPr^p53A cells cultured in the presence of PMN and S100A8/A9 or indicated cytokines relative to KPr^p53A cells cultured with PMN. Three independent experiments with 16 replicates were performed. Mean±SEM of one experiment is shown. (FIG. 2B) Fold increase in the number of KPr^p53A cells cultured in the presence of PMN and LPS relative to KPr^p53A cells cultured with PMN or alone. Means±SEM of three independent experiments with 16 replicates each are shown. (FIG. 2C) Fold increase in the number of KPr^p53A cells cultured in the presence of S100A8/A9 alone, PMN and S100A8/A9, or PMN-MDSC relative to KPr^p53A cultured alone. Means±SEM of 10 independent experiments with 16 replicates each are shown. (FIG. 2D) S100A8/A9 protein produced by PMN after treatment with indicated hormones or LPS was measured by ELISA. PMN-MDSC were isolated from spleens of Lewis lung carcinoma tumor-bearing mice. Means±SEM and results of each independent experiment with three replicates are shown. (FIG. 2E) S100A8/A9 protein secreted in vitro from PMN and PMN treated with NE with or without ICI-118; […] as measured by ELISA. Means±SEM and results of independent experiment with three replicates are shown. (FIG. 2F) Flow cytometry staining of ADRB2 receptor (dark gray) on PMN isolated from mouse spleen. Isotype control, light gray. Representative histogram of three experiments is shown. (FIG. 2G) Fold increase in the number of KPr^p53A cells cultured with PMN alone, NE alone, PMN and NE together, and PMN and NE plus ICI-118; 553 relative to KPr^p53A cells cultured alone (Ctrl). Ten independent experiments with 16 replicates for each experiment were performed. Means±SEM in a representative experiment are shown. (FIG. 2H) Number of KPr^p53A cells cultured in the presence of PMN from S100a9KO mice alone or together with NE relative to KPr^p53A cells cultured alone (ctrl). Means±SEM are reported for 16 replicates. (FIG. 2I) Percentage of live PMN after overnight incubation with NE, S100A8/A9, or LPS. Each dot represents the average of three experimental replicates of one single experiment. Means±SEM are shown for each group. (FIG. 2J) Fold increase in number of LL2^CisA cells cultured with PMN alone or together with S100A8/A9 or NE relative to LL2^CisA cultured alone (Ctrl). Means±SEM of three independent experiments with 16 replicates each are shown. […] In all panels, P values were calculated using ANOVA test with correction for multiple comparisons.
FIG. 11A-FIG. 11G show the mechanism of dormant tumor cell reactivation. […] P values were calculated by ANOVA test with correction for multiple comparisons. […]

[1] = test system: LL2^cisA and AT-3^DoxA cells; test: In vitro co-culture of chemotherapy-arrested mouse tumor cells with PMN; type: cell-based
Procedure: as §1, §2

| Molecule | proliferation of KPr^p53A cells induced by PMN and NE, effect of β-blocker (KPr^p53A cells; PMN and NE plus ICI-118,551) | cytotoxic effect on PMN (PMN; proportion of live PMN after exposure) | NE- and PMN-induced reactivation of dormant mouse tumor cells, effect of β-blocker ([1]; PMN and NE plus ICI-118,551) | reactivation/proliferation of KPr^p53A cells, supplement alone (KPr^p53A cells; absence of PMN) | reactivation of KPr^p53A cells cultured with MON plus supplement (KPr^p53A cells; monocytes instead of PMN) | reactivation/proliferation of KPr^p53A cells cultured with PMN plus supplement (KPr^p53A cells; supplement added with PMN, LPS 0.5 to 2 μg/ml) | PMN viability (PMN) | proliferation of arrested mouse tumor cells cultured with mouse PMN plus supplement ([1]; LL2^cisA, AT-3^DoxA) |
| --- | --- | --- | --- | --- | --- | --- | --- | --- |
| Cc1ccc(OCC(O)C(C)NC(C)C)c2c1CCC2 (centres unmarked) [ICI-118,551] | this effect was abrogated | no cytotoxic effect on PMN | this effect was abrogated | – | – | – | – | – |
| B1 | – | – | – | no effect | failed to reactivate KPr^p53A cells | enabled PMN to induce proliferation of KPr^p53A cells | did not affect PMN viability | activated proliferation |

From patent US20230151434A1, “REAWAKENING OF DORMANT TUMOR CELLS BY MODIFIED LIPIDS DERIVED FROM STRESS ACTIVATED NEUTROPHILS” (The Wistar Institute of Anatomy and Biology, priority 2020, published 2023)
